doi:10.1101/2024.02.20.581209 (bioRxiv, 2024)

T1: MglA (Myxococcus xanthus, UniProt Q1DB04 1-195)
T1 sequence: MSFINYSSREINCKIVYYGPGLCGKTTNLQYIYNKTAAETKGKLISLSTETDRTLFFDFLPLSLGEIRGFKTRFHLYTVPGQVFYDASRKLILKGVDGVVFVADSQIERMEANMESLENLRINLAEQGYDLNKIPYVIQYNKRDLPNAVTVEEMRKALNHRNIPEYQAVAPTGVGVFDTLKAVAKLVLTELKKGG


Key:
[1] = target: RomR-REC^141 (Myxococcus xanthus); experiment: SEC-MALS
[2] = target: RomR-REC^141 (Myxococcus xanthus); experiment: ITC
[3] = target: RomR-REC^125 (Myxococcus xanthus); experiment: ITC
MglA = target: T1, MglA; experiment: ITC

Row | stoichiometry N [1] | Kd [2] [nM] | stoichiometry N [2] | Kd [3] [nM] | stoichiometry N [3] | Kd (MglA) [nM] | stoichiometry N (MglA) | Molecule
1 | 1 | – | – | – | – | – | – | RomX (hexahistidine-tagged, end of the tag not told for this experiment) (natural protein)
2 | – | 1200 | 1.2 | 1140 | 1.3 | 4800 | 1.1 | RomX (N-terminal hexahistidine tagged construct) (natural protein, M. xanthus) MTDEEKVKAMRLARAIASDISLYNEQKIIKGIEQDNLFEVLKEELEEGRELYKSRVSQEIFTKMNFFERAINDIVLRSKAHVKSKIW
